{"source": "paper PMC2894018", "about": "(2010)", "key": {"[1]": {"target": "HIV-1 Vpr Δ44 fused to the N- or C-terminal fragment of Venus (UniProt P12520)", "experiment": "BiFC (bimolecular fluorescence complementation), flow cytometry on cells", "conditions": "cells cotransfected with VC and VN fusions of the same Vpr mutant; vector control 0.1; parent: 35.7"}, "[2]": {"target": "HIV-1 Gag fused to the N- or C-terminal fragment of Venus (HIV-1)", "experiment": "split reporter (BiFC, NanoBiT); Venus BiFC in 293T cells cotransfected with VC and VN chimeric Vpr and Gag plasmids; fixed thirty-six hours after transfection; percent BiFC positive cells by flow cytometry"}, "[3]": {"target": "HIV-1 Gag fused to the N- or C-terminal fragment of Venus (HIV-1)", "experiment": "split reporter (BiFC, NanoBiT); Venus BiFC in HeLa cells cotransfected with VN and VC fusion plasmids; thirty-six to forty hours after transfection, fixed; percent BiFC positive cells by flow cytometry and fluorescence microscopy"}, "[4]": {"target": "T1, HIV-1 Vpr from NL43 (Vpr^wt) fused to the N- or C-terminal fragment of Venus (HIV-1 (NL43)), P12520", "T1 chain": "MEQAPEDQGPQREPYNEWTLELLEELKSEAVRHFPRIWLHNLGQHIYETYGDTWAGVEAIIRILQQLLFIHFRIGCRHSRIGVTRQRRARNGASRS", "experiment": "split reporter (BiFC, NanoBiT); Venus BiFC in HeLa cells cotransfected with VN and VC fusion plasmids; thirty-six to forty hours after transfection, fixed; percent BiFC positive cells by flow cytometry and fluorescence microscopy", "conditions": "remark: other sources report otherwise"}, "[5]": {"target": "T1, HIV-1 Vpr from NL43 (Vpr^wt) fused to …", "experiment": "split reporter (BiFC, NanoBiT); Venus BiFC in HeLa cells cotransfected with VN and VC fusion plasmids; thirty-six to forty hours after transfection, fixed; percent BiFC positive cells by flow cytometry and fluorescence microscopy", "conditions": "remark: other sources report otherwise"}, "[6]": {"target": "T1, HIV-1 Vpr from NL43 (Vpr^wt) fused to …", "experiment": "split reporter (BiFC, NanoBiT); Venus BiFC competition: VC-Vpr and VN-Vpr plasmids cotransfected with increasing amounts of untagged Vpr plasmid or empty vector; flow cytometry thirty-six hours after transfection; BiFC positive cells with vector backbone set as 100%", "conditions": "remark: other sources report otherwise"}}}
{"molecule": "HIV-1 Vpr from NL43 (Vpr^wt) fused to the N- or C-terminal fragment of Venus (from UniProt P12520) 44del", "values": [{"measurement": "response (% BiFC positive cells)", "setting": "[1]", "result": 1}]}
{"molecule": "HIV-1 Vpr E48A fused to the N- or C-terminal fragment of Venus (from UniProt P12520 1-96) (natural protein)", "values": [{"measurement": "percent BiFC positive cells (with VC-Gag)", "setting": "[2]", "result": 28, "unit": "%"}, {"measurement": "percent BiFC positive cells (with VN-Gag)", "setting": "[2]", "result": 29, "unit": "%"}]}
{"molecule": "HIV-1 Vpr R80A fused to the N- or C-terminal fragment of Venus (from UniProt P12520 1-96) (natural protein)", "values": [{"measurement": "percent BiFC positive cells (with VC-Gag)", "setting": "[2]", "result": 27, "unit": "%"}, {"measurement": "percent BiFC positive cells (with VN-Gag)", "setting": "[2]", "result": 33, "unit": "%"}]}
{"molecule": "HIV-1 Vpr from NL43 (Vpr^wt) fused to the N- or C-terminal fragment of Venus (from UniProt P12520 1-96) (natural protein)", "values": [{"measurement": "percent fluorescent positive cells (venus-C-Gag and venus-N-Vpr^wt)", "setting": "[3]", "result": 29, "unit": "%"}, {"measurement": "percent fluorescent positive cells (venus-N-Gag and venus-C-Vpr^wt)", "setting": "[3]", "result": 34, "unit": "%"}, {"measurement": "percent BiFC positive cells (with VC-Gag)", "setting": "[2]", "result": 27, "unit": "%"}, {"measurement": "percent BiFC positive cells (with VN-Gag)", "setting": "[2]", "result": 31, "unit": "%"}]}
{"molecule": "HIV-1 Gag fused to the N- or C-terminal fragment of Venus (natural protein)", "values": [{"measurement": "percent BiFC positive cells", "setting": "[3]", "result": 30, "unit": "%"}]}
{"molecule": "HIV-1 Vpr from NL43 (Vpr^wt) fused to the N- or C-terminal fragment of Venus, P12520 1-96 (natural protein) MEQAPEDQGPQREPYNEWTLELLEELKSEAVRHFPRIWLHNLGQHIYETYGDTWAGVEAIIRILQQLLFIHFRIGCRHSRIGVTRQRRARNGASRS", "values": [{"measurement": "percent BiFC positive cells", "setting": "[4]", "result": 35, "unit": "%"}, {"measurement": "percent BiFC positive cells", "setting": "[5]", "result": 26, "unit": "%"}]}
{"molecule": "untagged HIV-1 Vpr (expressed from pVpr), P12520 1-96 (natural protein) MEQAPEDQGPQREPYNEWTLELLEELKSEAVRHFPRIWLHNLGQHIYETYGDTWAGVEAIIRILQQLLFIHFRIGCRHSRIGVTRQRRARNGASRS", "values": [{"measurement": "percent BiFC positive cells left (VC-Vpr with VN-Vpr, vector backbone as 100%) at a ratio of 1:10", "setting": "[6]", "result": "< 20", "unit": "%"}, {"measurement": "percent reduction of BiFC positive cells (VC-Vpr with VN-Vpr) at a ratio of 1:2.5", "setting": "[6]", "result": 40, "unit": "%"}]}
